Consider 1 protein from patent US20110275102.

Series [1] deals with GSK3-α partially purified from rabbit skeletal muscle.
The target in series [2] is GSK3-β partially purified from rabbit skeletal muscle, A0A5F9.
A further series has as its target T1, Crosstide GRPRTSSFAEG
T1 chain: GRPRTSSFAEG

Chain of GSK3-β partially purified from rabbit skeletal muscle, A0A5F9 (A0A5F9 entry or part of it): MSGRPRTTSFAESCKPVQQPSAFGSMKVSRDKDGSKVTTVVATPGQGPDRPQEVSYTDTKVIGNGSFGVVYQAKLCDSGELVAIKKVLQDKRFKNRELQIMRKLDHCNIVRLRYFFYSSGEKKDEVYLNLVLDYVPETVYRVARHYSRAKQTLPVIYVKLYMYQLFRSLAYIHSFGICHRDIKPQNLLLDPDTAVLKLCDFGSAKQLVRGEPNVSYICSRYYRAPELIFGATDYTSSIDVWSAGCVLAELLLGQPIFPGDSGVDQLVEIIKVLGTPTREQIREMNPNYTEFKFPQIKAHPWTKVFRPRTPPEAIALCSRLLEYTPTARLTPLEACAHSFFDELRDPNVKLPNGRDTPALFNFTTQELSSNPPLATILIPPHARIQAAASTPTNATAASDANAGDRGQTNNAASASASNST

B1: RAC-PK immunoprecipitated or chromatographed from insulin-stimulated L6 myotubes (protein)
chain: MNDVAIVKEGWLHKRGEYIKTWRPRYFLLKNDGTFIGYKERPQDVEQRESPLNNFSVAQCQLMKTERPRPNTFIIRCLQWTTVIERTFHVETPEEREEWTTAIQTVADGLKRQEEETMDFRSGSPSDNSGAEEMEVALAKPKHRVTMNEFEYLKLLGKGTFGKVILVKEKATGRYYAMKILKKEVIVAKDEVAHTLTENRVLQNSRHPFLTALKYSFQTHDRLCFVMEYANGGELFFHLSRERVFSEDRARFYGAEIVSALDYLHSEKNVVYRDLKLENLMLDKDGHIKITDFGLCKEGIKDGATMKTFCGTPEYLAPEVLEDNDYGRAVDWWGLGVVMYEMMCGRLPFYNQDHEKLFELILMEEIRFPRTLGPEAKSLLSGLLKKDPTQRLGGGSEDAKEIMQHRFFANIVWQDVYEKKLSPPFKPQVTSETDTRYFDEEFTAQMITITPPDQDDSMECVDSERRPHFPQFSYSASGTA
On to B1, for which the “GSK3 activity after incubation with MgATP and RAC-PK” value in series [1] is “RAC-PK from insulin-stimulated L6 myotubes (but not from unstimulated or wortmannin-treated cells) inactivated GSK3-α and GSK3-β in vitro”; in series [2], “RAC-PK from insulin-stimulated L6 myotubes (but not from unstimulated or wortmannin-treated cells) inactivated GSK3-α and GSK3-β in vitro”. For the same protein, the “site of in vitro phosphorylation (tryptic peptide, solid-phase sequencing)” value in series [2] is “the third residue of these, corresponding to Ser9 (GSK3-β) or Ser21 (GSK3-α), was the site of phosphorylation in each phosphopeptide”. Further, the “site of phosphorylation in Crosstide” value with Crosstide GRPRTSSFAEG was “Akt/RAC phosphorylated the Ser in the Crosstide equivalent to Ser21 in GSK3-α and Ser9 in GSK3-β (data not shown)”.
